Test results from patent publication US20180142032A1 (Sanofi, published 2018).
Changes are numbered by the printed parent chain.

T1: mLAMP1_ΔGYQTI (mouse, UniProt P11438 25-369)
T1 construct: on cells; also called pXL6009; murine LAMP1; not shown: murine transmembrane domain and cytoplasmic tail with GYQTI replaced by 5 Ala
T1 sequence: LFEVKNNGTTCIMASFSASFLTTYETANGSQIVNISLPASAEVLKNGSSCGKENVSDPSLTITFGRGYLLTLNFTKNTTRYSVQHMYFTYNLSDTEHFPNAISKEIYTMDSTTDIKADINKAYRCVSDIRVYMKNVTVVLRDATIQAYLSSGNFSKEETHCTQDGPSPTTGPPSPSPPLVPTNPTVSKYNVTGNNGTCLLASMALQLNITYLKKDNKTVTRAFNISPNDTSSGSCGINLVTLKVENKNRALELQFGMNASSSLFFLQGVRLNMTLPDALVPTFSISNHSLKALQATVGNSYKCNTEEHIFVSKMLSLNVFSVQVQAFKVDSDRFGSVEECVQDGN

T2: LAMP1::histag (human, UniProt P11279 29-382)
T2 construct: extracellular domain without signal peptide, C-terminal 6 His tag, made in HEK293 cells; also called recombinant human LAMP1; human LAMP1 (29-382)
T2 sequence: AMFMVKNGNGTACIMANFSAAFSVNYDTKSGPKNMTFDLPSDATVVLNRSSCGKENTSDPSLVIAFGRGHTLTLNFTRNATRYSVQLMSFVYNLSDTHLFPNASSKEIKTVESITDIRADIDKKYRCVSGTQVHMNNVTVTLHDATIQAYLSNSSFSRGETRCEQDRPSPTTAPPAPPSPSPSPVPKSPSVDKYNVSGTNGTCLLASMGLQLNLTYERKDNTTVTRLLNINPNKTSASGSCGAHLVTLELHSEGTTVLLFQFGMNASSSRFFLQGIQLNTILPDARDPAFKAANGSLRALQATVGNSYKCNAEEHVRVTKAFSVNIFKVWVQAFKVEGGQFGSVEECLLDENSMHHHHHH

T3: mLAMP1_hseq6-9-11_ΔGYQTI (mouse; human, UniProt P11438 25-369)
T3 construct: on cells; numbering read as for pXL6041; also called pXL6092; not shown: murine transmembrane domain and cytoplasmic tail with GYQTI replaced by 5 Ala
T3 chain: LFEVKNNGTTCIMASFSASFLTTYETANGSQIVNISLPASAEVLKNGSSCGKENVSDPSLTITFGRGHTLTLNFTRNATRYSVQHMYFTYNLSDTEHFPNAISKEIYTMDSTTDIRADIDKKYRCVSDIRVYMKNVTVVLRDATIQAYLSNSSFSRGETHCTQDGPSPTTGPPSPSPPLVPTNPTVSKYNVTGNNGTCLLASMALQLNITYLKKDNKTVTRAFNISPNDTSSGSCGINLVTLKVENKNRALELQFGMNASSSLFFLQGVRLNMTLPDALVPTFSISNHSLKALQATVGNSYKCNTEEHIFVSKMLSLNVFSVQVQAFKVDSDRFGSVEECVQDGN

T4: mLAMP1_hseq6_ΔGYQTI (mouse; human, UniProt P11438 25-369)
T4 construct: on cells; numbering read as for pXL6041; also called pXL6047; not shown: murine transmembrane domain and cytoplasmic tail with GYQTI replaced by 5 Ala
T4 chain: T1 sequence with Y68H, L69T, K76R, T78A

T5: mLAMP1_hseq6-11_ΔGYQTI (mouse; human, UniProt P11438 25-369)
T5 construct: on cells; also called pXL6041; not shown: murine transmembrane domain and cytoplasmic tail with GYQTI replaced by 5 Ala
T5 chain: T3 chain with R116K, D120N, K122A

T6: mLAMP1_hseq11_ΔGYQTI (mouse; human, UniProt P11438 25-369)
T6 construct: on cells; numbering read as for pXL6041; also called pXL6048; not shown: murine transmembrane domain and cytoplasmic tail with GYQTI replaced by 5 Ala
T6 chain: T1 sequence with S151N, G152S, N153S, K156R, E157G

B1: MAb3 (antibody, V domains shown)
VH: QIQLVQSGPELKKPGETVKISCKASGYIFTNYGMNWVKQAPGKGLKWMGWINTYTGESRYADDFKGRFALSLETSASTAYLQINNLENEDMATYFCAREDYYGNSPWFFDVWGAGTTVTVSS
VL: DIQMTQTTSSLSASLGDRVTISCNASQGINKYLNWYQQKPDGTVKLLIYYTSTLHSGVPSRFSGSGSGTDYSLTINNLEPEDIATYYCQQYTKLPFTFGSGTKLEIK
notes: murine monoclonal IgG, kappa, from hybridoma; also called murine MAb3
B2: MAb1 (antibody, mouse IgG2a, kappa)
heavy: QVQLQQSGAELVKPGASVKMSCKASGYIFTNYNIHWVKKSPGQGLEWIGAIYPGNGDAPYSQKFKDKATLTADKSSSTTYMQLSRLTSEDSAVYYCVRANWDVAFAYWGQGTLVSVSAAKTTAPSVYPLAPVCGDTTGSSVTLGCLVKGYFPEPVTLTWNSGSLSSGVHTFPAVLQSDLYTLSSSVTVTSSTWPSQSITCNVAHPASSTKVDKKIEPRGPTIKPCPPCKCPAPNLLGGPSVFIFPPKIKDVLMISLSPIVTCVVVDVSEDDPDVQISWFVNNVEVHTAQTQTHREDYNSTLRVVSALPIQHQDWMSGKEFKCKVNNKDLPAPIERTISKPKGSVRAPQVYVLPPPEEEMTKKQVTLTCMVTDFMPEDIYVEWTNNGKTELNYKNTEPVLDSDGSYFMYSKLRVEKKNWVERNSYSCSVVHEGLHNHHTTKSFSRTPGK
light: DIQMTQSPPSLSASLGGKVTITCKASQDIDRYMAWYQDKPGKGPRLLIHDTSTLQPGIPSRFSGSGSGRDYSFSISNLEPEDIATYYCLQYDNLWTFGGGTKLEIKRADAAPTVSIFPPSSEQLTSGGASVVCFLNNFYPKDINVKWKIDGSERQNGVLNSWTDQDSKDSTYSMSSTLTLTKDEYERHNSYTCEATHKTSTSPIVKSFNRNEC
notes: murine monoclonal IgG, kappa, from hybridoma; also called murine MAb1

Legend:
[1] = molecular target: T1, mLAMP1_ΔGYQTI; experiment: flow cytometry, transfected 293-F cells
[2] = molecular target: T2, LAMP1::histag; experiment: ELISA on secreted LAMP1::histag
[3] = molecular target: T7, LAMP1_mseq4_ΔGYQTI (human; mouse); experiment: flow cytometry, transfected 293-F cells
T7 construct: on cells; also called pXL6015

[4] = molecular target: T3, mLAMP1_hseq6-9-11_ΔGYQTI; experiment: flow cytometry, transfected 293-F cells, experiment 2
[5] = molecular target: T4, mLAMP1_hseq6_ΔGYQTI; experiment: as above
[6] = molecular target: T5, mLAMP1_hseq6-11_ΔGYQTI; experiment: as above
[7] = molecular target: T6, mLAMP1_hseq11_ΔGYQTI; experiment: as above

Row | binding result [1] | EC50 [2] [nM] | mean fluorescence [3] | mean fluorescence [4] | mean fluorescence [5] | mean fluorescence [6] | mean fluorescence [7] | Binder
1 | no binding | – | – | – | – | – | – | B1
2 | – | 0.16 | 891 | 499 | 3 | 211 | 2 | B2
